According to article PMC7922139, “Characterization of a Yellow Laccase from Botrytis cinerea 241” (Journal of Fungi, 2021):
Values belong to the substance of their own block, whether it stands above or below them.

Experiments:
[1] = test system: CCn1c(=NN=c2sc3cc(S(=O)(=O)O)ccc3n2CC)sc2cc(S(=O)(=O)O)ccc21; test: purified protein; conditions: 50 mM sodium acetate pH 5.5, 25 °C
[2] = test system: CN(C)CCCN1c2ccccc2Sc2ccccc21; test: purified protein; conditions: 50 mM sodium acetate pH 5.5, 25 °C
[3] = test system: COc1cc(/C=C/C(=O)O)cc(OC)c1O; test: purified protein; conditions: 50 mM sodium acetate pH 5.5, 25 °C
COc1cc(C(=O)O)cc(OC)c1O = test: purified protein; conditions: 50 mM sodium acetate pH 5.5, 25 °C
[4] = test system: COc1cc(C=NN=Cc2cc(OC)c(O)c(OC)c2)cc(OC)c1O; test: purified protein; conditions: 50 mM sodium acetate pH 5.5, 25 °C
Nc1ccc(N)cc1 = test: purified protein; conditions: 50 mM sodium acetate pH 5.5, 25 °C
[5] = test system: O=C(O)/C=C/c1ccc(O)c(O)c1; test: purified protein; conditions: 50 mM sodium acetate pH 5.5, 25 °C
[6] = test system: O=C(O)CCN1c2ccccc2Oc2ccccc21; test: purified protein; conditions: 50 mM sodium acetate pH 5.5, 25 °C
O=C(O)c1cc(O)c(O)c(O)c1 = test: purified protein; conditions: 50 mM sodium acetate pH 5.5, 25 °C
[7] = test system: O=c1c(O)c(-c2ccc(O)c(O)c2)oc2cc(O)cc(O)c12; test: purified protein; conditions: 50 mM sodium acetate pH 5.5, 25 °C
[8] = test system: O=c1c(O)c(-c2ccc(O)c(O)c2)oc2cc(O)ccc12; test: purified protein; conditions: 50 mM sodium acetate pH 5.5, 25 °C
[9] = test system: O=c1c(O)c(-c2ccc(O)cc2)oc2cc(O)cc(O)c12; test: purified protein; conditions: 50 mM sodium acetate pH 5.5, 25 °C
OCCN1c2ccccc2Oc2ccccc21 = test: purified protein; conditions: 50 mM sodium acetate pH 5.5, 25 °C
Oc1ccc(O)cc1 = test: purified protein; conditions: 50 mM sodium acetate pH 5.5, 25 °C
Oc1ccccc1O = test: purified protein; conditions: 50 mM sodium acetate pH 5.5, 25 °C
[10] = molecular target: yellow laccase Bcl1 from Botrytis cinerea strain 241 (Botrytis cinerea strain 241); test: SEC; Superdex 200 5/150 GL analytical column, 50 mM Tris-HCl, 150 mM NaCl, pH 8; mass read against standards (apoferritin, beta-amylase, alcohol dehydrogenase, albumin) and compared with the mass by SDS-PAGE

Substance: Bcl1 laccase (Botrytis cinerea)
- Km [1]: 13.8 ± 0.2 µM
- kcat [1]: 29 ± 1 s⁻¹
- kcat/Km [1]: 2.1e+06 ± 100000 M⁻¹ s⁻¹
- Km [2]: 60.0 ± 10 µM
- kcat [2]: 7.1 ± 0.3 s⁻¹
- Km [3]: 60.0 ± 10 µM
- kcat [3]: 100 ± 10 s⁻¹
- Km (COc1cc(C(=O)O)cc(OC)c1O): 74.0 ± 12 µM
- kcat (COc1cc(C(=O)O)cc(OC)c1O): 3.4 ± 0.5 s⁻¹
- kcat/Km (COc1cc(C(=O)O)cc(OC)c1O): 46000 ± 5000 M⁻¹ s⁻¹
- Km [4]: 0.7 ± 0.1 µM
- kcat [4]: 30 ± 2 s⁻¹
- kcat/Km [4]: 4.3e+07 ± 7e+06 M⁻¹ s⁻¹
- Km (Nc1ccc(N)cc1): 150.0 ± 20 µM
- kcat (Nc1ccc(N)cc1): 15 ± 1 s⁻¹
- kcat/Km (Nc1ccc(N)cc1): 100000 ± 2000 M⁻¹ s⁻¹
- Km [5]: 15.0 ± 1 µM
- kcat [5]: 13 ± 1 s⁻¹
- kcat/Km [5]: 870000 ± 200000 M⁻¹ s⁻¹
- Km [6]: 6.0 ± 0.8 µM
- kcat [6]: 33 ± 1 s⁻¹
- kcat/Km [6]: 5.5e+06 ± 800000 M⁻¹ s⁻¹
- Km (O=C(O)c1cc(O)c(O)c(O)c1): 27.0 ± 8 µM
- kcat (O=C(O)c1cc(O)c(O)c(O)c1): 20 ± 3 s⁻¹
- kcat/Km (O=C(O)c1cc(O)c(O)c(O)c1): 740000 ± 200000 M⁻¹ s⁻¹
- Km [7]: 3.7 ± 0.8 µM
- kcat [7]: 6.7 ± 0.4 s⁻¹
- kcat/Km [7]: 1.8e+06 ± 300000 M⁻¹ s⁻¹
- Km [8]: 1.5 ± 0.1 µM
- kcat [8]: 7.8 ± 0.3 s⁻¹
- kcat/Km [8]: 5.2e+06 ± 900000 M⁻¹ s⁻¹
- Km [9]: 8.6 ± 0.1 µM
- kcat/Km [9]: 2e+06 ± 400000 M⁻¹ s⁻¹
- Km (OCCN1c2ccccc2Oc2ccccc21): 40.0 ± 7 µM
- kcat (OCCN1c2ccccc2Oc2ccccc21): 25 ± 2 s⁻¹
- kcat/Km (OCCN1c2ccccc2Oc2ccccc21): 630000 ± 30000 M⁻¹ s⁻¹
- kcat (Oc1ccc(O)cc1): 21.4 ± 0.3 s⁻¹
- kcat/Km (Oc1ccc(O)cc1): 97000 ± 2000 M⁻¹ s⁻¹
- Km (Oc1ccccc1O): 70.0 ± 4 µM
- kcat (Oc1ccccc1O): 28 ± 1 s⁻¹
- kcat/Km (Oc1ccccc1O): 400000 ± 20000 M⁻¹ s⁻¹

- stoichiometry N [10]: 2
Substance: yellow laccase Bcl1 from Botrytis cinerea strain 241 (enzyme)
